From the supplement of paper PMC10567573

B1: ANKRD17 (parent)
chain: EVLRRLTSSVSCALDEAAAALTRM
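Note: lentivirally expressed fusions sorted by FACS into six bins by GFP to DsRed ratio, PSI derived from sequencing read proportions per bin multiplied by bin number.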

Variants of: B1
Test: protein stability index of a GFP-peptide fusion (GPS, HEK-293T) (PSI 1-6); higher = more stable
Details: c terminus: a fixed tail appended
For EVLRRLTDSVSCALDEAAAALTRM [S8D], the protein stability index was 2.25.
EVLRRLTNSVSCALDEAAAALTRM [S8N] showed a protein stability index of 2.49.
EVLRRLTKSVSCALDEAAAALTRM [S8K] showed a protein stability index of 2.39.
EVLRRLTPSVSCALDEAAAALTRM [S8P] gave a protein stability index of 1.73.
With EVLRRLTGSVSCALDEAAAALTRM [S8G] the protein stability index was 1.52.
EVLRRLTMSVSCALDEAAAALTRM [S8M] gave a protein stability index of 2.13.
EVLRRLTHSVSCALDEAAAALTRM [S8H] gave a protein stability index of 2.09.
With EVLRRLTVSVSCALDEAAAALTRM [S8V] the protein stability index was 2.27.
Work on EVLRRLTRSVSCALDEAAAALTRM [S8R] yielded a protein stability index of 2.21.
For EVLRRLTCSVSCALDEAAAALTRM [S8C], the protein stability index was 2.81.
For EVLRRLTSSVSCALCEAAAALTRM [D15C], the protein stability index was 1.99.
EVLRRLTSSVSCALREAAAALTRM [D15R] showed a protein stability index of 1.85.
For EVLRRLTSSVSCALQEAAAALTRM [D15Q], the protein stability index was 1.87.
With EVLRRLTSSVSCALHEAAAALTRM [D15H] the protein stability index was 1.97.
Variant EVLRRLTSSVSCALPEAAAALTRM [D15P] has a protein stability index of 2.37.
Work on EVLRRLTSSVSCALNEAAAALTRM [D15N] yielded a protein stability index of 3.18.
EVLRRLTSSVSCALMEAAAALTRM [D15M] showed a protein stability index of 3.36.
EVLRRLTSSVSCALGEAAAALTRM [D15G] showed a protein stability index of 1.26.
EVLRRLTSSVSCALAEAAAALTRM [D15A] gave a protein stability index of 1.35.
In the case of EVLRRLTSSVSCALEEAAAALTRM [D15E], the protein stability index is reported as 2.2.
In the case of EVLRRLTSSVSCSLDEAAAALTRM [A13S], the protein stability index is reported as 1.34.
With EVLRRLTSSVSCKLDEAAAALTRM [A13K] the protein stability index was 2.55.
For EVLRRLTSSVSCMLDEAAAALTRM [A13M], the protein stability index was 1.6.
For EVLRRLTSSVSCYLDEAAAALTRM [A13Y], the protein stability index was 1.66.
EVLRRLTSSVSCNLDEAAAALTRM [A13N] showed a protein stability index of 1.69.
EVLRRLTSSVSCLLDEAAAALTRM [A13L] gave a protein stability index of 1.38.
EVLRRLTSSVSCWLDEAAAALTRM [A13W] showed a protein stability index of 2.07.
With EVLRRLTSSVSCELDEAAAALTRM [A13E] the protein stability index was 2.34.
EVLRRLTSSVSCPLDEAAAALTRM [A13P] gave a protein stability index of 1.37.
For EVLRRLTSSVSCHLDEAAAALTRM [A13H], the protein stability index was 2.42.
EVLRRLTSSVSCQLDEAAAALTRM [A13Q] showed a protein stability index of 1.59.
Variant EVLRRLTSSVSCCLDEAAAALTRM [A13C] has a protein stability index of 2.58.
With EVLRRLTSSVSCVLDEAAAALTRM [A13V] the protein stability index was 1.16.
EVLRRLTSSVSCRLDEAAAALTRM [A13R] gave a protein stability index of 2.06.
For EVLRRLTSSVSCFLDEAAAALTRM [A13F], the protein stability index was 2.2.
EVLRRLTSSVSCILDEAAAALTRM [A13I] showed a protein stability index of 2.26.
Variant EVLRRLTSSVSCTLDEAAAALTRM [A13T] has a protein stability index of 2.38.
Variant EVLRRLTSSVACALDEAAAALTRM [S11A] has a protein stability index of 1.43.
EVLRRLTSSVECALDEAAAALTRM [S11E] showed a protein stability index of 1.92.
Work on EVLRRLTSSVGCALDEAAAALTRM [S11G] yielded a protein stability index of 1.03.
In the case of EVLRRLTSSVMCALDEAAAALTRM [S11M], the protein stability index is reported as 2.22.
With EVLRRLTSSVFCALDEAAAALTRM [S11F] the protein stability index was 1.12.
In the case of EVLRRLTSSVICALDEAAAALTRM [S11I], the protein stability index is reported as 2.1.
For EVLRRLTSSVQCALDEAAAALTRM [S11Q], the protein stability index was 1.18.
In the case of EVLRRLTSSVPCALDEAAAALTRM [S11P], the protein stability index is reported as 2.79.
EVLRRLTSSVVCALDEAAAALTRM [S11V] gave a protein stability index of 1.35.
In the case of EVLRRLTSSVYCALDEAAAALTRM [S11Y], the protein stability index is reported as 2.26.
EVLRRLTSSVNCALDEAAAALTRM [S11N] showed a protein stability index of 2.65.
EVLRRLTSSVDCALDEAAAALTRM [S11D] showed a protein stability index of 2.18.
For EVLRRLTSSVTCALDEAAAALTRM [S11T], the protein stability index was 2.42.
EVLRRLTSSVSCALDESAAALTRM [A17S] showed a protein stability index of 2.16.
With EVLRRLTSSVSCALDEMAAALTRM [A17M] the protein stability index was 1.85.
Variant EVLRRLTSSVSCALDEVAAALTRM [A17V] has a protein stability index of 2.32.
EVLRRLTSSVSCALDEIAAALTRM [A17I] showed a protein stability index of 2.26.
With EVLRRLTSSVSCALDETAAALTRM [A17T] the protein stability index was 2.13.
EVLRRLTSSVSCALDELAAALTRM [A17L] gave a protein stability index of 2.34.
Work on EVLRRLTSSVSCALDECAAALTRM [A17C] yielded a protein stability index of 2.59.
With EVLRRLTSSVSCALDEFAAALTRM [A17F] the protein stability index was 2.03.
Work on EVLRRLTSSVSCALDEEAAALTRM [A17E] yielded a protein stability index of 2.24.
In the case of EVLRRLTSSVSCALDEYAAALTRM [A17Y], the protein stability index is reported as 2.49.
Work on EVLRRLTSSVSCALDEDAAALTRM [A17D] yielded a protein stability index of 1.46.
EVLRRLTSSVSCAQDEAAAALTRM [L14Q] showed a protein stability index of 2.48.
For EVLRRLTSSVSCAKDEAAAALTRM [L14K], the protein stability index was 1.79.
Work on EVLRRLTSSVSCATDEAAAALTRM [L14T] yielded a protein stability index of 2.77.
Work on EVLRRLTSSVSCASDEAAAALTRM [L14S] yielded a protein stability index of 2.72.
In the case of EVLRRLTSSVSCAYDEAAAALTRM [L14Y], the protein stability index is reported as 2.27.
Variant EVLRRLTSSVSCAMDEAAAALTRM [L14M] has a protein stability index of 2.81.
Work on EVLRRLTSSVSCAHDEAAAALTRM [L14H] yielded a protein stability index of 2.13.
In the case of EVLRRLTSSVSCAIDEAAAALTRM [L14I], the protein stability index is reported as 2.22.
EVLRRLTSSVSCAEDEAAAALTRM [L14E] gave a protein stability index of 3.61.
EVLRRLTSSVSCAVDEAAAALTRM [L14V] showed a protein stability index of 1.77.
For EVLRRLTSSVSCAPDEAAAALTRM [L14P], the protein stability index was 1.93.
Variant EVLRRLTSSVSCARDEAAAALTRM [L14R] has a protein stability index of 1.57.
With EVLRRLTSSVSCAWDEAAAALTRM [L14W] the protein stability index was 1.81.
For EVLRRLTSSVSCAADEAAAALTRM [L14A], the protein stability index was 2.23.
For EVLRRLTSSVSCADDEAAAALTRM [L14D], the protein stability index was 1.94.
Variant EVLRRLTSSVSCAFDEAAAALTRM [L14F] has a protein stability index of 1.23.
In the case of EVLRRLTSSVSCACDEAAAALTRM [L14C], the protein stability index is reported as 2.2.
EVLRRLTSSVSCANDEAAAALTRM [L14N] gave a protein stability index of 2.11.
Variant EVLRRLTSSVSCALDTAAAALTRM [E16T] has a protein stability index of 1.88.
Variant EVLRRLTSSVSCALDCAAAALTRM [E16C] has a protein stability index of 2.46.
Variant EVLRRLTSSVSCALDAAAAALTRM [E16A] has a protein stability index of 2.32.
Work on EVLRRLTSSVSCALDIAAAALTRM [E16I] yielded a protein stability index of 1.97.
Variant EVLRRLTSSVSCALDSAAAALTRM [E16S] has a protein stability index of 2.96.
With EVLRRLTSSVSCALDNAAAALTRM [E16N] the protein stability index was 3.
EVLRRLTSSVSCALDRAAAALTRM [E16R] gave a protein stability index of 2.09.
In the case of EVLRRLTSSVSCALDYAAAALTRM [E16Y], the protein stability index is reported as 2.43.
Work on EVLRRLTSSVSCALDQAAAALTRM [E16Q] yielded a protein stability index of 2.56.
For EVLRRLTSSVSCALDLAAAALTRM [E16L], the protein stability index was 3.18.
For EVLRRLTSSVSCALDKAAAALTRM [E16K], the protein stability index was 1.54.
Work on EVLRRLTSSVSCALDHAAAALTRM [E16H] yielded a protein stability index of 1.8.
Variant EVLRRLTSSVSCALDVAAAALTRM [E16V] has a protein stability index of 1.6.
Variant EVLRRLTSSVSCALDFAAAALTRM [E16F] has a protein stability index of 3.12.
In the case of EVLRRLTSSVSCALDDAAAALTRM [E16D], the protein stability index is reported as 1.72.
